The assay addresses T1, mouse IL-22R (mouse, UniProt Q80XZ4).
T1 chain: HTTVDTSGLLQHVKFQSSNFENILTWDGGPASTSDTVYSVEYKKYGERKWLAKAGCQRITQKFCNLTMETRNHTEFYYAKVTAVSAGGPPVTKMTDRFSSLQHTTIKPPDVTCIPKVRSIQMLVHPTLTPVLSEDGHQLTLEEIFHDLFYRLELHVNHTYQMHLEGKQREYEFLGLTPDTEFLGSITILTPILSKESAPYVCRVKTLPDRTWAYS

B1: 230C9 (antibody, V domains shown)
VH: QVQLVESGGGLVQPGGSLRLSCAASGFTFSSYDMNWVRQAPGKGLEWVSSIYNDASNTAYSDSVKGRFTISRDNSKNTLYLQMNSLRAEDTAVYYCAKVGFSGTYYSESWGQGTLVTVSS
VL: SYELTQPSSVSVALGQTARITCQGGYYAHWYQQKPGQAPVLVIYGQNNRPSGIPERFSGSGAGNTATLTISRAQAEDEADYYCQSGSSSSNAVFGGGTKLTVL
In the case of B1, the binding result is listed as “no binding”.

For the origin of these results see patent US20190127459 (published 2019).
